# Experimental data from the RNAGym collection of RNA variant scans (doi:10.7554/elife.80360).
# B1: HDV Ribozyme (parent)
# chain: GGCCGGCAUGGUCCCAGCCUCCUCGCUGGCGCCGGCUGGGCAACAUUCCGAGGGGACCGUCCCCUCGGUAAUGGCGAAUGGGACCCA
# Variants of: B1
# Experiment: self-cleavage, relative activity (ratio to wild type); higher = more cleavage; co-transcriptional
row,Variant,self-cleavage
1,C19G U47G,0
2,C19G U60A,0.0959
3,C19G U60C,0.0627
4,C19G U60G,0.0405
5,C19G U69A,0
6,C19G U69C,0
7,C19G U72A,0.0563
8,C19G U72G,0
9,C19G U79G,0.222
10,C19U A43C,0.111
11,C19U A43U,0.104
12,C19U A45G,0.111
13,C19U A51C,0.204
14,C19U A56U,0.0863
15,C19U A70U,0.169
16,C19U A71U,0.13
17,C19U A77C,0.0811
18,C19U A78U,0.111
19,C19U C21U,0.0378
20,C19U C24G,0.0475
21,C19U C26U,0.718
22,C19U C41A,0.0804
23,C19U C41G,0.116
24,C19U C44A,0

row,Variant,self-cleavage
1,C19U C44U,0.0852
2,C19U C49U,0.131
3,C19U C57A,0.0886
4,C19U C61U,0.0898
5,C19U C62G,0
6,C19U C66A,0.182
7,C19U C66U,0.22
8,C19U C75G,0.0739
9,C19U C84A,0.0554
10,C19U C84U,0.0811
11,C19U C85G,0.102
12,C19U G28A,0.956
13,C19U G29U,0.153
14,C19U G31C,0.0845
15,C19U G31U,0.115
16,C19U G34C,0.0346
17,C19U G54A,0.179
18,C19U G54U,0.174
19,C19U G59C,0.205
20,C19U G59U,0.194
21,C19U G67U,0.145
22,C19U G80A,0.0573
23,C19U G81U,0.131
24,C19U U20A,0.149

row,Variant,self-cleavage
1,C19U U23G,0.237
2,C19U U27A,0.332
3,C19U U27C,0.135
4,C19U U46C,0.213
5,C19U U46G,0
6,C19U U47G,0.0906
7,C19U U69C,0.0997
8,C19U U72A,0.0504
9,U20A A43U,0.0386
10,U20A A45G,0
11,U20A A56C,0.0519
12,U20A A56G,0.0536
13,U20A A77U,0
14,U20A A83G,0.14
15,U20A C22G,0
16,U20A C22U,0
17,U20A C26G,0
18,U20A C30G,0.095
19,U20A C32U,0.0811
20,U20A C33U,0
21,U20A C36A,0.135
22,U20A C36G,0.18
23,U20A C36U,0
24,U20A C41G,0.135

row,Variant,self-cleavage
1,U20A C48G,0
2,U20A C57A,0.0978
3,U20A C62U,0.0475
4,U20A C64A,0.113
5,U20A C64G,0.0639
6,U20A C75G,0.0791
7,U20A C84A,0.208
8,U20A C85U,0.0405
9,U20A G29A,0.0773
10,U20A G31C,0.0475
11,U20A G34A,0.0992
12,U20A G34C,0.199
13,U20A G39C,0.185
14,U20A G40A,0.0426
15,U20A G50A,0.0449
16,U20A G50C,0.131
17,U20A G52A,0.0415
18,U20A G52U,0.0462
19,U20A G53U,0.0959
20,U20A G54A,0.116
21,U20A G68C,0.0978
22,U20A G73A,0.0791
23,U20A G74C,0.0396
24,U20A G76C,0

row,Variant,self-cleavage
1,U20A U23A,0.277
2,U20A U27A,0.0723
3,U20A U46G,0.166
4,U20A U47G,0
5,U20A U65C,0.0639
6,U20A U65G,0.101
7,U20A U69A,0
8,U20A U79A,0.0573
9,U20A U79C,0
10,U20A U79G,0.0665
11,U20C A42U,0.0978
12,U20C A51U,0.185
13,U20C A71C,0.0692
14,U20C A77U,0.0898
15,U20C A78U,0.111
16,U20C A83G,0.149
17,U20C C21A,0.0475
18,U20C C24A,0
19,U20C C30A,0.0923
20,U20C C30U,0.157
21,U20C C32G,0.138
22,U20C C33G,0
23,U20C C36U,0.131
24,U20C C41G,0.172

row,Variant,self-cleavage
1,U20C C48A,0.341
2,U20C C49A,0.172
3,U20C C58G,0.0923
4,U20C C61U,0.0723
5,U20C C62A,0
6,U20C C75A,0.0594
7,U20C C85G,0.0519
8,U20C C86U,0.138
9,U20C G29A,0.0773
10,U20C G31C,0.0594
11,U20C G34C,0
12,U20C G38C,0.0831
13,U20C G38U,0
14,U20C G39C,0.185
15,U20C G40U,0.113
16,U20C G50A,0.306
17,U20C G53C,0.151
18,U20C G54U,0.122
19,U20C G55A,0.0405
20,U20C G67A,0.17
21,U20C G68A,0.111
22,U20C G68C,0.192
23,U20C G68U,0.145
24,U20C G73U,0.0875

row,Variant,self-cleavage
1,U20C G74U,0.104
2,U20C G76A,0.198
3,U20C G76U,0.17
4,U20C G80A,0.0496
5,U20C G81U,0
6,U20C G82C,0.0639
7,U20C U27G,0.185
8,U20C U37A,0.107
9,U20C U37G,0.185
10,U20C U46G,0
11,U20C U47A,0.133
12,U20C U65A,0.166
13,U20C U79A,0
14,U20G A42U,0
15,U20G A51C,0.332
16,U20G A51G,0.145
17,U20G A71U,0.151
18,U20G A77C,0.178
19,U20G A77G,0.0692
20,U20G A77U,0.237
21,U20G A78U,0
22,U20G A83C,0.158
23,U20G A83G,0.16
